B1: Nop58p_447 (truncated Nop58p, residues 1–447) (domain or fragment, Saccharomyces cerevisiae, UniProt Q12499 1-447, looked up)
chain: MAYVLTETSAGYALLKASDKKIYKSSSLIQDLDSSDKVLKEFKIAAFSKFNSAANALEEANSIIEGKVSSQLEKLLEEIKKDKKSTLIVSETKLANAINKLGLNFNVVSDAVTLDIYRAIKEYLPELLPGMSDNDLSKMSLGLAHSIGRHKLKFSADKVDVMIIQAIALLDDLDKELNTYAMRCKEWYGWHFPELAKIVTDSVAYARIILTMGIRSKASETDLSEILPEEIEERVKTAAEVSMGTEITQTDLDNINALAEQIVEFAAYREQLSNYLSARMKAIAPNLTQLVGELVGARLIAHSGSLISLAKSPASTIQILGAEKALFRALKTKHDTPKYGLLYHASLVGQATGKNKGKIARVLAAKAAVSLRYDALAEDRDDSGDIGLESRAKVENRLSQLEGRDLRTTPKVVREAKKVEMTEARAYNADADTAKAASDSESDSDDE
B3: Rvb1/2p complex (tag-free) (complex, Saccharomyces cerevisiae)
chain 1: MVAISEVKENPGVNSSNSGAVTRTAAHTHIKGLGLDESGVAKRVEGGFVGQIEAREACGVIVDLIKAKKMSGRAILLAGGPSTGKTALALAISQELGPKVPFCPLVGSELYSVEVKKTETLMENFRRAIGLRIKETKEVYEGEVTELTPEDAENPLGGYGKTISHVIVGLKSAKGTKTLRLDPTIYESIQREKVSIGDVIYIEANTGAVKRVGRSDAYATEFDLETEEYVPLPKGEVHKKKEIVQDVTLHDLDVANARPQGGQDVISMMGQLLKPKKTEITEKLRQEVNKVVAKYIDQGVAELIPGVLFIDEVNMLDIEIFTYLNKALESNIAPVVVLASNRGMTTVRGTEDVISPHGVPPDLIDRLLIVRTLPYDKDEIRTIIERRATVERLQVESSALDLLATMGTETSLRYALQLLAPCGILAQTSNRKEIVVNDVNEAKLLFLDAKRSTKILETSANYL
chain 2: MSIQTSDPNETSDLKSLSLIAAHSHITGLGLDENLQPRPTSEGMVGQLQARRAAGVILKMVQNGTIAGRAVLVAGPPSTGKTALAMGVSQSLGKDVPFTAIAGSEIFSLELSKTEALTQAFRKSIGIKIKEETELIEGEVVEIQIDRSITGGHKQGKLTIKTTDMETIYELGNKMIDGLTKEKVLAGDVISIDKASGKITKLGRSFARSRDYDAMGADTRFVQCPEGELQKRKTVVHTVSLHEIDVINSRTQGFLALFTGDTGEIRSEVRDQINTKVAEWKEEGKAEIVPGVLFIDEVHMLDIECFSFINRALEDEFAPIVMMATNRGVSKTRGTNYKSPHGLPLDLLDRSIIITTKSYNEQEIKTILSIRAQEEEVELSSDALDLLTKTGVETSLRYSSNLISVAQQIAMKRKNNTVEVEDVKRAYLLFLDSARSVKYVQENESQYIDDQGNVQISIAKSADPDAMDTTE

Data set [1] concerns the target ScR2TP complex (Rvb1p, Rvb2p, His-Pih1p, Tah1p) (Saccharomyces cerevisiae, UniProt Q03940 1-463; Q12464 1-471; P38768 1-344; P25638 1-111). The data set is described as follows: AUC.
For data set [2], the target named is B3. Put plainly: AUC.
Data set [3] concerns the molecule itself. The data set is described as follows: AUC.
The target of data set [4] is T1, Rvb1p (non-tagged) (Saccharomyces cerevisiae, UniProt Q03940 1-463). The data set is described as follows: pull-down.
Data set [5] deals with B3. Put plainly: ITC.
Data set [6] has as its target Rvb2p (non-tagged) (Saccharomyces cerevisiae, UniProt Q12464 1-471). The data set is described as follows: pull-down.
Data set [7] deals with B3. The data set is described as follows: label-free quantitative mass spectrometry.
Data set [8] addresses B1. Put plainly: cross-linking.
In data set [9] the target is T1, Rvb1p (non-tagged). The data set is described as follows: cross-linking.

Values joined by “and” are separate entries in the source; they are usually repeats but may differ in a detail not shown here. Identical values can stand only once.

As to B1, the binding result in data set [1] is “binds”.

B2: Pih1p 1–284 fragment (domain or fragment, Saccharomyces cerevisiae, UniProt P38768 1-284, looked up)
chain: MADFLLRPIKQRHRNEDKYVSVDAADGSVSKIEPIADFVIKTKLLSANGPEKLQDGRKVFINVCHSPLVPKPEVDFNARIVFPLIIQNEWEIPIITSCYRMDHDKKGQECYVWDCCINSDCSRWICDDIQLREILVEWCLESCEIRDSVVLCRDRIAFPKMKKKGAELPALEVLNDELHQDYKAKMHKIIEEEAGDPMSILRGRNDDGDDNNDPDDGTLPPLFPIENKISGAKIEEIDKNEIAHRNLKQAPAPAPAPHEQQEDVPEYEVKMKRFKGAAYKLRIL
As for B2, the binding result in data set [2] was “binds”.

For the molecule B3, the binding result in data set [3] is “binds”.

B4: DII-truncated Rvb2p (deleting residues 134–234) (natural protein, Saccharomyces cerevisiae, UniProt Q12464 1-471, looked up)
chain: MSIQTSDPNETSDLKSLSLIAAHSHITGLGLDENLQPRPTSEGMVGQLQARRAAGVILKMVQNGTIAGRAVLVAGPPSTGKTALAMGVSQSLGKDVPFTAIAGSEIFSLELSKTEALTQAFRKSIGIKIKEETVVHTVSLHEIDVINSRTQGFLALFTGDTGEIRSEVRDQINTKVAEWKEEGKAEIVPGVLFIDEVHMLDIECFSFINRALEDEFAPIVMMATNRGVSKTRGTNYKSPHGLPLDLLDRSIIITTKSYNEQEIKTILSIRAQEEEVELSSDALDLLTKTGVETSLRYSSNLISVAQQIAMKRKNNTVEVEDVKRAYLLFLDSARSVKYVQENESQYIDDQGNVQISIAKSADPDAMDTTE
For B4, the binding result in data set [4] is “binds”.

B5: Pih1p-Tah1p complex (His-tagged Pih1p, non-tagged Tah1p) (complex, Saccharomyces cerevisiae)
chain 1: MADFLLRPIKQRHRNEDKYVSVDAADGSVSKIEPIADFVIKTKLLSANGPEKLQDGRKVFINVCHSPLVPKPEVDFNARIVFPLIIQNEWEIPIITSCYRMDHDKKGQECYVWDCCINSDCSRWICDDIQLREILVEWCLESCEIRDSVVLCRDRIAFPKMKKKGAELPALEVLNDELHQDYKAKMHKIIEEEAGDPMSILRGRNDDGDDNNDPDDGTLPPLFPIENKISGAKIEEIDKNEIAHRNLKQAPAPAPAPHEQQEDVPEYEVKMKRFKGAAYKLRILIENKAPNSKPDRFSPSYNFAENILYINGKLSIPLPRDIVVNAADIKIFHIRKERTLYIYI
chain 2: MSQFEKQKEQGNSLFKQGLYREAVHCYDQLITAQPQNPVGYSNKAMALIKLGEYTQAIQMCQQGLRYTSTAEHVAIRSKLQYRLELAQGAVGSVQIPVVEVDELPEGYDRS
On to B5, for which, in data set [5], the “KD of the first of two serial sites (KD^1), apparent” value was 0.155 µM and the “KD of the second of two serial sites (KD^2), apparent” value worked out at 1.2 µM. Also, the binding result in data set [6] is “binds”. In data set [7], the “stoichiometry N” value is 1.6 Pih1p per 3 Rvb1p and 3 Rvb2p and 0.5 Tah1p per 3 Rvb1p.

B6: Pih1p (His-tagged) (natural protein, Saccharomyces cerevisiae, UniProt P38768 1-344, looked up)
chain: MADFLLRPIKQRHRNEDKYVSVDAADGSVSKIEPIADFVIKTKLLSANGPEKLQDGRKVFINVCHSPLVPKPEVDFNARIVFPLIIQNEWEIPIITSCYRMDHDKKGQECYVWDCCINSDCSRWICDDIQLREILVEWCLESCEIRDSVVLCRDRIAFPKMKKKGAELPALEVLNDELHQDYKAKMHKIIEEEAGDPMSILRGRNDDGDDNNDPDDGTLPPLFPIENKISGAKIEEIDKNEIAHRNLKQAPAPAPAPHEQQEDVPEYEVKMKRFKGAAYKLRILIENKAPNSKPDRFSPSYNFAENILYINGKLSIPLPRDIVVNAADIKIFHIRKERTLYIYI
In the case of B6, the binding result in [8] and in data set [9] was “binds” in each case.

These data come from PMC6625358 (Structure (London, England : 1993), 2017).
